Experimental data from US20130344073A1.

Columns and labels:
[1] = molecular target: human MASP-1 (human) (UniProt P48740); experiment: cell-based or functional assay
[2] = molecular target: human MASP-2 (human) (UniProt O00187); experiment: cell-based or functional assay
human MASP-2 (human), sequence (O00187 16-686): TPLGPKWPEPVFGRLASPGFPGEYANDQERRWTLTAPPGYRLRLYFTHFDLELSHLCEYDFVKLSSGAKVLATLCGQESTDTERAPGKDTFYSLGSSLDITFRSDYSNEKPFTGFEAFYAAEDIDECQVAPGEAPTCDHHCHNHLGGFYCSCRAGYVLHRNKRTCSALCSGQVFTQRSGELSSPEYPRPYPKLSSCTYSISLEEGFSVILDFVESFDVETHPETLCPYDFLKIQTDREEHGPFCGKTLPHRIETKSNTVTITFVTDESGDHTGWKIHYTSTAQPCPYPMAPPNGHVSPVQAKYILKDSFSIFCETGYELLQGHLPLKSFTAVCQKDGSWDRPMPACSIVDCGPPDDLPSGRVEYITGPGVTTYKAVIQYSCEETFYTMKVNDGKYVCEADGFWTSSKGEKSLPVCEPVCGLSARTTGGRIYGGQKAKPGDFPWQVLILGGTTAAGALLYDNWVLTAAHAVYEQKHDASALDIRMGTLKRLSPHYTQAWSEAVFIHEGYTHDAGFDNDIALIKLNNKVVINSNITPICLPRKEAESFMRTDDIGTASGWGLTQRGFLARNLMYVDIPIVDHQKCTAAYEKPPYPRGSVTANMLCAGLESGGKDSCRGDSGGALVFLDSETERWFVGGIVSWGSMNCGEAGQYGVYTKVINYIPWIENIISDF

human MASP-1 (human), sequence (P48740 other isoform, or with tags, fused parts or gaps): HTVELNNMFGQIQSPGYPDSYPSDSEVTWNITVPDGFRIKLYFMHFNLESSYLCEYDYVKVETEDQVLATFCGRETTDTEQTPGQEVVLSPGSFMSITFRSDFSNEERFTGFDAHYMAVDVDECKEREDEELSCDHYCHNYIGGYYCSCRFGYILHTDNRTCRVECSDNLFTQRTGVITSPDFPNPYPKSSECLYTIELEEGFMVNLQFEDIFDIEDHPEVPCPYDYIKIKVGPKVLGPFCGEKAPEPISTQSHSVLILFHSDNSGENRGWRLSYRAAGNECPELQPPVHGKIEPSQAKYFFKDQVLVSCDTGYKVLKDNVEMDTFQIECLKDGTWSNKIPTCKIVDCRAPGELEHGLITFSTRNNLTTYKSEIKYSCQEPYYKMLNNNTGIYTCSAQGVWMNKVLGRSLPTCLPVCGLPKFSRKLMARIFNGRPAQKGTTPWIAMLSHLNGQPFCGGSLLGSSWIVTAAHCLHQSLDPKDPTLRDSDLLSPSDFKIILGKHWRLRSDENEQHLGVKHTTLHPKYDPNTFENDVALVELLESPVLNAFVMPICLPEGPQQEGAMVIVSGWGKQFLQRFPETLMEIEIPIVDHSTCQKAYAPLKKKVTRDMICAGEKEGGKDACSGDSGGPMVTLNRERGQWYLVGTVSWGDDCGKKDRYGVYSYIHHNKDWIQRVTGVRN

Row | C3b deposition from 1% normal human serum on mannan (IC50) [1] [nM] | C3b deposition from 1% normal human serum on mannan (IC50) [2] [nM] | Substance
1 | 27 | – | SGMI-1Fc, mature polypeptide fusion comprising SGMI-1, linker and human IgG1-Fc (Fc fusion)
2 | – | 300 | SGMI-2Fc, mature polypeptide fusion comprising SGMI-2, linker and human IgG1-Fc (Fc fusion)
